Assay results published in patent US20250320281A1.
Substitutions are numbered along the chain they refer to.

B1: 1503_H05 (PG16) (TCN-119) (antibody, V domains shown)
VH: QEKLVESGGGVVQPGGSLRLSCLASGFTFHKYGMHWVRQAPGKGLEWVALISDDGMRKYHSDSMWGRVTISRDNSKNTLYLQFSSLKVEDTAMFFCAREAGGPIWHDDVKYYDFNDGYYNYHYMDVWGKGTIVTVSS
VL: QSALTQPASVSGSPGQTITISCNGTRSDVGGFDSVSWYQQSPGKAPKVMVFDVSHRPSGISNRFSGSKSGNTASLTISGLHIEDEGDYFCSSLTDRSHRIFGGGTKVTVLG
B2: 1456_A12 (PG16) (TCN-117) (antibody, V domains shown)
VH: B1 VH with Q1H, K3Q, S7A, K87R, I132K
VL: B1 VL with R26S, S27R, I60M, V107L
B3: 1489_I13 (PG16) (TCN-120) (antibody, V domains shown)
VH: B1 VH with K3Q, V5L, D62N, I132T
VL: B1 VL with R26S
B4: 1469_M23 (PG16) (TCN-118) (antibody, V domains shown)
VH: B1 VH with I132T
VL: B1 VL with K44R, V107L

These binders were tested against HIV-1 Env of isolate THRO.18 (clade B pseudovirus) (HIV-1) (assay: cell-based or functional assay).

Row | Binder | IC50 (neutralization, TZM-bl pseudovirus assay)
1 | B1 | 4.12 µg/mL
2 | B2 | 2.08 µg/mL
3 | B3 | 7.41 µg/mL
4 | B4 | 7.01 µg/mL

Each binder was assayed against HIV-1 Env of isolate TR0.11 (clade B pseudovirus) (HIV-1) (assay: cell-based or functional assay).

Row | Binder | IC50 (neutralization, TZM-bl pseudovirus assay)
5 | B1 | 4.3 µg/mL
6 | B2 | 3.05 µg/mL
7 | B3 | 10.9 µg/mL
8 | B4 | 7.52 µg/mL

The binders below were run against HIV-1 JR-FL Env E168K (HIV-1 JR-FL) (assay: cell-based or functional assay).

Row | Binder | IC50 (ug/ml), pseudovirus neutralization, TZM-bl assay
9 | B1 | 0.002 µg/mL
10 | B2 | 0.003 µg/mL
11 | B3 | 0.005 µg/mL
12 | B4 | 0.005 µg/mL

What follows are binders tested against HIV-1 Env of isolate DU422 (clade C pseudovirus) (HIV-1) (assay: cell-based or functional assay).

Row | Binder | IC50 (neutralization, TZM-bl pseudovirus assay)
13 | B1 | 0.71 µg/mL
14 | B2 | 0.36 µg/mL
15 | B3 | 1.87 µg/mL
16 | B4 | 0.97 µg/mL

The binders below were run against HIV-1 Env of isolate ZM233 (clade C pseudovirus) (HIV-1) (assay: cell-based or functional assay).

Row | Binder | IC50 (neutralization, TZM-bl pseudovirus assay)
17 | B1 | < 0.01 µg/mL
18 | B2 | < 0.01 µg/mL
19 | B3 | < 0.01 µg/mL
20 | B4 | < 0.01 µg/mL

These binders were tested against HIV-1 Env of isolate DU156 (clade C pseudovirus) (HIV-1) (assay: cell-based or functional assay).

Row | Binder | IC50 (neutralization, TZM-bl pseudovirus assay)
21 | B1 | < 0.01 µg/mL
22 | B2 | < 0.01 µg/mL
23 | B3 | < 0.01 µg/mL
24 | B4 | < 0.01 µg/mL

Each binder was assayed against HIV-1 Env of isolate ZM214 (clade C pseudovirus) (HIV-1) (assay: cell-based or functional assay).

Row | Binder | IC50 (neutralization, TZM-bl pseudovirus assay)
25 | B1 | > 25 µg/mL
26 | B2 | > 25 µg/mL
27 | B3 | > 25 µg/mL
28 | B4 | > 25 µg/mL

What follows are binders tested against HIV-1 Env of isolate CAAN (clade B pseudovirus) (HIV-1) (assay: cell-based or functional assay).

Row | Binder | IC50 (neutralization, TZM-bl pseudovirus assay)
29 | B1 | 13.5 µg/mL
30 | B2 | 10.6 µg/mL
31 | B3 | 24.9 µg/mL
32 | B4 | 17.7 µg/mL

The binders below were run against MuLV envelope protein (control pseudovirus) (MuLV) (assay: cell-based or functional assay).

Row | Binder | IC50 (neutralization, TZM-bl pseudovirus assay)
33 | B1 | > 25 µg/mL
34 | B2 | > 25 µg/mL
35 | B3 | > 25 µg/mL
36 | B4 | > 25 µg/mL

The binders below were run against HIV-1 Env of isolate AC10 (clade B pseudovirus) (HIV-1) (assay: cell-based or functional assay).

Row | Binder | IC50 (neutralization, TZM-bl pseudovirus assay)
37 | B1 | < 0.01 µg/mL
38 | B2 | < 0.01 µg/mL
39 | B3 | < 0.01 µg/mL
40 | B4 | < 0.01 µg/mL

What follows are binders tested against HIV-1 Env of isolate CAP45 (clade C pseudovirus) (HIV-1) (assay: cell-based or functional assay).

Row | Binder | IC50 (neutralization, TZM-bl pseudovirus assay)
41 | B1 | < 0.01 µg/mL
42 | B2 | < 0.01 µg/mL
43 | B3 | < 0.01 µg/mL
44 | B4 | < 0.01 µg/mL

What follows are binders tested against HIV-1 ADA Env (HIV-1 ADA) (assay: cell-based or functional assay).

Row | Binder | IC50 (ug/ml), pseudovirus neutralization, TZM-bl assay
45 | B1 | 0.003 µg/mL
46 | B2 | 0.005 µg/mL
47 | B3 | 0.008 µg/mL
48 | B4 | 0.005 µg/mL

The binders below were run against HIV-1 Env of isolate Du172 (clade C pseudovirus) (HIV-1) (assay: cell-based or functional assay).

Row | Binder | IC50 (neutralization, TZM-bl pseudovirus assay)
49 | B1 | < 0.01 µg/mL
50 | B2 | < 0.01 µg/mL
51 | B3 | < 0.01 µg/mL
52 | B4 | < 0.01 µg/mL

What follows are binders tested against HIV-1 Env of isolate ZM249 (clade C pseudovirus) (HIV-1) (assay: cell-based or functional assay).

Row | Binder | IC50 (neutralization, TZM-bl pseudovirus assay)
53 | B1 | < 0.01 µg/mL
54 | B2 | < 0.01 µg/mL
55 | B3 | < 0.01 µg/mL
56 | B4 | < 0.01 µg/mL

The binders below were run against HIV-1 Env of isolate PVO.4 (clade B pseudovirus) (HIV-1) (assay: cell-based or functional assay).

Row | Binder | IC50 (neutralization, TZM-bl pseudovirus assay)
57 | B1 | 11 µg/mL
58 | B2 | 10.4 µg/mL
59 | B3 | 20.6 µg/mL
60 | B4 | 21.2 µg/mL

Each binder was assayed against HIV-1 Env of isolate REJ04541 (clade B pseudovirus) (HIV-1) (assay: cell-based or functional assay).

Row | Binder | IC50 (neutralization, TZM-bl pseudovirus assay)
61 | B1 | 0.22 µg/mL
62 | B2 | < 0.01 µg/mL
63 | B3 | 0.34 µg/mL
64 | B4 | 0.39 µg/mL

The binders below were run against HIV-1 92RW020 Env (HIV-1 92RW020) (assay: cell-based or functional assay).

Row | Binder | IC50 (ug/ml), pseudovirus neutralization, TZM-bl assay
65 | B1 | 0.02 µg/mL
66 | B2 | 0.05 µg/mL
67 | B3 | 0.03 µg/mL
68 | B4 | 0.05 µg/mL
